Test results published in patent US20240270846A1 (published 2024).

Key:
[1] = target: T1, biotin-labeled human CD137 fused to human IgG1 Fc fragment (human, biotin-labeled); experiment: bead ELISA, IgG on biotin-human CD137-Fc on streptavidin beads, no free CD3e
T1 construct: Immobilised on streptavidin beads through biotin; also called human CD137-Fc; biotin-human CD137-Fc

[2] = target: T1, biotin-labeled human CD137 fused to …; experiment: competitive bead ELISA, IgG on biotin-human CD137-Fc, competitor free CD3 epsilon peptide 125 pmol/well
[3] = target: T1, biotin-labeled human CD137 fused to …; experiment: competitive bead ELISA, decrease of signal on biotin-human CD137-Fc with 125 pmol/well free CD3 epsilon peptide against 0
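Throughout, for ELISA signal, free CD3e 125 pmol/well: bead ELISA on streptavidin-coated magnetic beads, with the signal read as well fluorescence 2 min after APS-5 addition.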

| ELISA signal, free CD3e 0 pmol/well [1] | ELISA signal, free CD3e 125 pmol/well [2] | Signal decrease [3] [%] | Binder |
| --- | --- | --- | --- |
| 19100 | 2420 | 87.3 | dBBDu217 (antibody, human IgG1, V domains shown, IgG: VH joined to human IgG1 CH1-Fc, GLS3000 as light chain) VH: QVQLVESGGGLVQPGRSLRLSCAASGFTFSNAWMHWVRQAPGKGLEWVAQIKDRQQGYATYYAPSVKGRFTISRDDSKNSIYLQMNSLKTEDTAVYYCRFVHYHLAGYGYYGVDAWGQGTTVTVSS VL: DIVMTQSPLSLPVTPGEPASISCRSSQSLVHSNRNTYLHWYQQKPGQAPRLLIYKVSNRFSGVPDRFSGSGSGTDFTLKISRVEAEDVGVYYCGQGTQVPYTFGQGTKLEIK |
| 7190 | 3240 | 55 | dBBDu222 (antibody, human IgG1, V domains shown, IgG: VH joined to human IgG1 CH1-Fc, GLS3000 as light chain) VH: QVQLVESGGGLVQPGRSLRLSCAASGFTISSAWMHWVRQAPGKGLEWVAQIKDRANGYAAYYAPSVKGRFTISRDDSKNSIYLQMNSLKTEDTAVYYCRYVHYATAYDGFYGFGVDAWGQGTTVTVSS VL: DIVMTQSPLSLPVTPGEPASISCRSSQSLVHSNRNTYLHWYQQKPGQAPRLLIYKVSNRFSGVPDRFSGSGSGTDFTLKISRVEAEDVGVYYCGQGTQVPYTFGQGTKLEIK |
| 45200 | 2190 | 95.2 | dBBDu205 (antibody, human IgG1, V domains shown, IgG: VH joined to human IgG1 CH1-Fc, GLS3000 as light chain) VH: QVQLVESGGGLVQPGRSLRLSCAASGFTFSNAWMHWVRQAPGKGLEWVAQIKDRSQLYAAYYAPSVKGRFTISRDDSKNSIYLQMNSLKTEDTAVYYCHYVHYASASTVLPAFGVDAWGQGTTVTVSS VL: DIVMTQSPLSLPVTPGEPASISCRSSQSLVHSNRNTYLHWYQQKPGQAPRLLIYKVSNRFSGVPDRFSGSGSGTDFTLKISRVEAEDVGVYYCGQGTQVPYTFGQGTKLEIK |
| 40900 | 2370 | 94.2 | dBBDu199 (antibody, human IgG1, V domains shown, IgG: VH joined to human IgG1 CH1-Fc, GLS3000 as light chain) VH: QVQLVESGGGLVQPGRSLRLSCAASGFTFSNAWMHWVRQAPGKGLEWVAQIKDKQSGYNTYYAPSVKGRFTISRDDSKNSIYLQMNSLKTEDTAVYYCHYVHYASASTVLPAFGVDAWGQGTTVTVSS VL: DIVMTQSPLSLPVTPGEPASISCRSSQSLVHSNRNTYLHWYQQKPGQAPRLLIYKVSNRFSGVPDRFSGSGSGTDFTLKISRVEAEDVGVYYCGQGTQVPYTFGQGTKLEIK |
| 12100 | 1930 | 84 | dBBDu202 (antibody, human IgG1, V domains shown, IgG: VH joined to human IgG1 CH1-Fc, GLS3000 as light chain) VH: QVQLVESGGGLVQPGRSLRLSCAASGFTFSNAWMHWVRQAPGKGLEWVAQIKDKGNAYAAYYAPSVKGRFTISRDDSKNSIYLQMNSLKTEDTAVYYCHYVHYSAASTVLPAFGVDAWGQGTTVTVSS VL: DIVMTQSPLSLPVTPGEPASISCRSSQSLVHSNRNTYLHWYQQKPGQAPRLLIYKVSNRFSGVPDRFSGSGSGTDFTLKISRVEAEDVGVYYCGQGTQVPYTFGQGTKLEIK |
| 43700 | 1880 | 95.7 | dBBDu204 (antibody, human IgG1, V domains shown, IgG: VH joined to human IgG1 CH1-Fc, GLS3000 as light chain) VH: QVQLVESGGGLVQPGRSLRLSCAASGFTFSNAWMHWVRQAPGKGLEWVAQIKDRSNNYATYYAESVKGRFTISRDDSKNSIYLQMNSLKTEDTAVYYCHYVHYASASTVLPAFGVDAWGQGTTVTVSS VL: DIVMTQSPLSLPVTPGEPASISCRSSQSLVHSNRNTYLHWYQQKPGQAPRLLIYKVSNRFSGVPDRFSGSGSGTDFTLKISRVEAEDVGVYYCGQGTQVPYTFGQGTKLEIK |

Second part, the binder before the results:

| Binder | ELISA signal, free CD3e 0 pmol/well [1] | ELISA signal, free CD3e 125 pmol/well [2] | Signal decrease [3] [%] |
| --- | --- | --- | --- |
| dBBDu179 (antibody, human IgG1, V domains shown, IgG: VH joined to human IgG1 CH1-Fc, GLS3000 as light chain) VH: QVQLVESGGGLVQPGRSLRLSCAASGFTFSNAWMHWVRQAPGKGLEWVAQIKDRSNQYATYYAPSVKGRFTISRDDSKNSIYLQMNSLKTEDTAVYYCHYVHYASASTVLPAFGVDAWGQGTTVTVSS VL: DIVMTQSPLSLPVTPGEPASISCRSSQSLVHSNRNTYLHWYQQKPGQAPRLLIYKVSNRFSGVPDRFSGSGSGTDFTLKISRVEAEDVGVYYCGQGTQVPYTFGQGTKLEIK | 61000 | 2620 | 95.7 |
| dBBDu174 (antibody, human IgG1, V domains shown, IgG: VH joined to human IgG1 CH1-Fc, GLS3000 as light chain) VH: QVQLVESGGGLVQPGRSLRLSCAASGFTFSSAWMHWVRQAPGKGLEWVAQIKDRASAYNAYYAESVKGRFTISRDDSKNSIYLQMNSLKTEDTAVYYCRYVHYPSYVSFLPYYGVDAWGQGTTVTVSS VL: DIVMTQSPLSLPVTPGEPASISCRSSQSLVHSNRNTYLHWYQQKPGQAPRLLIYKVSNRFSGVPDRFSGSGSGTDFTLKISRVEAEDVGVYYCGQGTQVPYTFGQGTKLEIK | 4800 | 1880 | 60.8 |
| dBBDu125 (antibody, human IgG1, V domains shown, IgG: VH joined to human IgG1 CH1-Fc, GLS3000 as light chain; also called DXDU01_3_#019; DXDU01_3 #019) VH: QVQLVESGGGLVQPGRSLRLSCAASGFTFSIAWMHWVRQAPGKGLEWVAQIKDKVNGYTAYYAESVKGRFTISRDDSKNSIYLQMNSLKTEDTAVYYCRYVHYAAYYDVLGYGGVDAWGQGTTVTVSS VL: DIVMTQSPLSLPVTPGEPASISCRSSQSLVHSNRNTYLHWYQQKPGQAPRLLIYKVSNRFSGVPDRFSGSGSGTDFTLKISRVEAEDVGVYYCGQGTQVPYTFGQGTKLEIK | 61400 | 2060 | 96.7 |
| dBBDu189 (antibody, human IgG1, V domains shown, IgG: VH joined to human IgG1 CH1-Fc, GLS3000 as light chain) VH: QVQLVESGGGLVQPGRSLRLSCAASGFTFSNAWMHWVRQAPGKGLEWIAQIKDRSNQYATYYAPSVKGRFTISRDDSKNSIYLQMNSLKTEDTAVYYCHYVHYAQASSLLPSFGVDAWGQGTTVTVSS VL: DIVMTQSPLSLPVTPGEPASISCRSSQSLVHSNRNTYLHWYQQKPGQAPRLLIYKVSNRFSGVPDRFSGSGSGTDFTLKISRVEAEDVGVYYCGQGTQVPYTFGQGTKLEIK | 27400 | 2190 | 92 |
| dBBDu196 (antibody, human IgG1, V domains shown, IgG: VH joined to human IgG1 CH1-Fc, GLS3000 as light chain) VH: QVQLVESGGGLVQPGRSLRLSCAASGFTFSNAWMHWVRQAPGKGLEWVAQIKDRGNAYNAYYAESVKGRFTISRDDSKNSIYLQMNSLKTEDTAVYYCHYVHYASASTVLPAFGVDAWGQGTTVTVSS VL: DIVMTQSPLSLPVTPGEPASISCRSSQSLVHSNRNTYLHWYQQKPGQAPRLLIYKVSNRFSGVPDRFSGSGSGTDFTLKISRVEAEDVGVYYCGQGTQVPYTFGQGTKLEIK | 33100 | 2220 | 93.3 |
| dBBDu193 (antibody, human IgG1, V domains shown, IgG: VH joined to human IgG1 CH1-Fc, GLS3000 as light chain) VH: QVQLVESGGGLVQPGRSLRLSCAASGFTFSNAWMHWVRQAPGKGLEWVAQIKDRSNQYATYYAPSVKGRFTISRDDSKNSIYLQMNSLKTEDTAVYYCHYVHYSAASTLLPSFGVDAWGQGTTVTVSS VL: DIVMTQSPLSLPVTPGEPASISCRSSQSLVHSNRNTYLHWYQQKPGQAPRLLIYKVSNRFSGVPDRFSGSGSGTDFTLKISRVEAEDVGVYYCGQGTQVPYTFGQGTKLEIK | 18200 | 2280 | 87.5 |
| dBBDu183 (antibody, human IgG1, V domains shown, IgG: VH joined to human IgG1 CH1-Fc, GLS3000 as light chain) VH: QVQLVESGGGLVQPGRSLRLSCAASGFTFSNAWMHWVRQAPGKGLEWVAQIKDKGNAYAAYYAPSVKGRFTISRDDSKNSIYLQMNSLKTEDTAVYYCHYVHYASASTVLPAFGVDAWGQGTTVTVSS VL: DIVMTQSPLSLPVTPGEPASISCRSSQSLVHSNRNTYLHWYQQKPGQAPRLLIYKVSNRFSGVPDRFSGSGSGTDFTLKISRVEAEDVGVYYCGQGTQVPYTFGQGTKLEIK | 34000 | 2370 | 93 |
| dBBDu186 (antibody, human IgG1, V domains shown, IgG: VH joined to human IgG1 CH1-Fc, GLS3000 as light chain) VH: QVQLVESGGGLVQPGRSLRLSCAASGFTFSNAWMHWVRQAPGKGLEWVAQIKDRSNQYATYYAPSVKGRFTISRDDSKNSIYLQMNSLKTEDTAVYYCHYVHYAQASTVLPAFGVDAWGQGTTVTVSS VL: DIVMTQSPLSLPVTPGEPASISCRSSQSLVHSNRNTYLHWYQQKPGQAPRLLIYKVSNRFSGVPDRFSGSGSGTDFTLKISRVEAEDVGVYYCGQGTQVPYTFGQGTKLEIK | 34800 | 2500 | 92.8 |
| anti-human CD137 antibody described in WO2005/035584A1 (abbreviated as B) (antibody, V domains shown, also called control anti-CD137 antibody) VH: QVQLQQWGAGLLKPSETLSLTCAVYGGSFSGYYWSWIRQSPEKGLEWIGEINHGGYVTYNPSLESRVTISVDTSKNQFSLKLSSVTAADTAVYYCARDYGPGNYDWYFDLWGRGTLVTVSS VL: EIVLTQSPATLSLSPGERATLSCRASQSVSSYLAWYQQKPGQAPRLLIYDASNRATGIPARFSGSGSGTDFTLTISSLEPEDFAVYYCQQRSNWPPALTFGGGTKVEIK | 99400 | 98100 | 1.26 |
| Du115/DUL008 (antibody, V domains shown, Human IgG1 format; also called dBBDu_115 with L008) VH: QVQLVESGGGLVQPGRSLRLSCAASGFTFSNAWMHWVRQAPGKGLEWVAQIKDKANSYNTYYAPSVKGRFTISRDDSKNSIYLQMNSLKTEDTAVYYCRYVHYGSSYGFLFAGYGVDAWGQGTTVTVSS VL: DIVMTQSPLSLPVTPGEPASISCQSSEELLHANRKTYLHWYQQKPGQAPRLLIYKVQNRFSGVPDRFSGSGSGTDFTLKISRVEAEDVGVYYCAQGTATPFTFGQGTKLEIK | 86200 | 2620 | 97 |
